In publication doi:10.1101/2025.06.12.659244 (bioRxiv, 2025):
Residue numbers refer to the chain shown, from its start. Names and notes keep the numbering of the source.

B1: St3Csn2^Y212R+I213R+M215R (Interface 1 mutant of St3Csn2) (natural protein, S. thermophilus DGCC 7710, UniProt G3ECR4 1-219, looked up)
chain: MKINFSLLDEPMEVNLGTVLVIEDVSVFAQLVKEFYQYDEQSNLTIFDSKIRSIRSSELLLITDILGYDINTSQVLKLLHTDIVSQLNDKPEVRSEIDSLVSLITDIIMAECIENELDIEYDEITLLELIKALGVRIETKSCTVFEKIFEILQIFKYLVKKRILVFVNSLSYFSKDEIYQILEYTKLSQADVLFLEPRQIEGIQQFILDKDRRLRPYNN
B2: St3Csn2 (accessory protein Csn2 of the S. thermophilus DGCC 7710 CRISPR3 system), homotetrameric ring (natural protein)
chain: B1 chain with R212Y, R213I, R215M
B3: St3 Cas1 (C-terminal StrepII-Tag), Cas1 homodimer of the St3 Cas1-Cas2 integrase (enzyme, S. thermophilus DGCC 7710)
chain: MAGWRTVVVNIHSKLSYKNNHLIFRNSYKTEMIHLSEIDILLLETTDIVLTTMLVKRLVDENILVIFCDDKRLPTAFLTPYYARHDSSLQIARQIAWKENVKCEVWTAIIAQKILNQSYYLGECSFFEKSQSIMELYHGLERFDPSNREGHSARIYFNTLFGNDFTRESDNDINAALDYGYTLLLSMFAREVVVCGCMTQIGLKHANQFNQFNLASDIMEPFRPIIDRIVYQNRHNNFVKIKKELFSIFSETYLYNGKEMYLSNIVSDYTKKVIKALNQLGEEIPEFRI
B4: St3 Cas1 (C-terminal HisTag), Cas1 homodimer of the St3 Cas1-Cas2 integrase (enzyme, S. thermophilus DGCC 7710)
chain: B3 chain
B5: St3 Cas2 (untagged), Cas2 homodimer of the St3 Cas1-Cas2 integrase (natural protein, S. thermophilus DGCC 7710)
chain: MSYRYMRMILMFDMPTDTAEERKAYRKFRKFLLSEGFIMHQFSVYSKLLLNHTANTAMVGRLKANNPKKGNITILTVTEKQFARMIYLYGDKNTSIANSEERLVFLGDNYCDED

Assays:
[1] = molecular target: the molecule itself; assay: cryo-EM structure
[2] = molecular target: the molecule itself; assay: SEC-MALS
[3] = molecular target: the molecule itself; assay: cryo-EM structure; remark: listed apart in the source

| Protein | stoichiometry N [1] | stoichiometry N [3] | other results |
| --- | --- | --- | --- |
| B1 | 4 | – | – |
| B2 | – | – | stoichiometry N [2]: 4 |
| B3 | – | 2 | – |
| B4 | 2 | – | – |
| B5 | – | 2 | – |
